From publication PMC4956616, “Structural Insights into Arl1-Mediated Targeting of the Arf-GEF BIG1 to the trans-Golgi” (Cell Reports, 2016)

B3: His6-DCB^Δ51–71 (human BIG1 residues 1–228 with a deletion of residues 51–71 inclusive) (domain or fragment, UniProt Q9Y6D6 1-228, looked up)
chain: MYEGKKTKNMFLTRALEKILADKEVKKAHHSQLRKACEVALEEIKAETEKTNFIEADKYFLPFELACQSKCPRIVSTSLDCLQKLIAYGHLTGNAPDSTTPGKKLIDRIIETICGCFQGPQTDEGVQLQIIKALLTAVTSQHIEIHEGTVLQAVRTCYNIYLASKNLINQTTAKATLTQMLNVIFARMENQALQEAKQMEKERHRQH
notes: also called DCB^((Δ51–71) BIG1); source: E. coli BL21-(DE3)-RIPL, co-expressed with GST-Arl1^Q71L, purified (glutathione-Sepharose, TEV release, Superdex 75)

How the values were obtained:
[1] = target: T1, His6-DCB^BIG1 (human BIG1 residues 1–228) (human, UniProt Q9Y6D6 1-228); assay: pull-down; 2 nM GST-Arl1 loaded with GMP-PNP or GDP mixed with 2 nM His6-tagged protein in 500 μl buffer C (20 mM Tris-HCl, 110 mM KCl, 1 mM DTT, 0.1% Triton X-100) plus 5 mM MgCl2, 4°C 30 min, captured on glutathione-Sepharose; SDS-PAGE, Coomassie; conditions: both partners purified
T1 construct: also called DCB domain; source: E. coli BL21-CodonPlus (DE3)-RIPL, purified (Ni-NTA); not shown: His6, N-terminal, kept
T1 sequence (looked up): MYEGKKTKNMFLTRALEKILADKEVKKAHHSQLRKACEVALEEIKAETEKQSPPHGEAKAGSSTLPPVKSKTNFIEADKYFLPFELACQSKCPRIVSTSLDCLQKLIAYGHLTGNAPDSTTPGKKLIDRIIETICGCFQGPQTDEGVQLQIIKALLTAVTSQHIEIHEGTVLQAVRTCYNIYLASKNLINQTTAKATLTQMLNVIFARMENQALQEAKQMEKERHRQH

[2] = target: T2, His6-tagged BIG2 N-terminal fragment (1–216) (human, UniProt Q9Y6D5 1-216); assay: as above; conditions: both partners purified
T2 construct: human BIG2, UniProt Q9Y6D5, N-terminal fragment, residues 1-216; also called related region from BIG2; source: E. coli BL21-CodonPlus (DE3)-RIPL, purified (Ni-NTA); not shown: His6, N-terminal, kept
T2 sequence (looked up): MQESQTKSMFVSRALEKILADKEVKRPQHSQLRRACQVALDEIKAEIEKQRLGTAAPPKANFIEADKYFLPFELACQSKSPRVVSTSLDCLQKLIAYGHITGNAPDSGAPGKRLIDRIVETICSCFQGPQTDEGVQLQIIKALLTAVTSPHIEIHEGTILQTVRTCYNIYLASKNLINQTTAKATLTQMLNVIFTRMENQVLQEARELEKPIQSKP

[3] = target: B3; assay: as above; conditions: both partners purified
[4] = target: the molecule itself; assay: SEC-MALS; MBP-tagged DCB^BIG1 proteins on Superdex-75 HR10/300, 0.5 ml/min, PBS pH 7.5, 150 mM NaCl, 5 mM MgCl2, 0.001% Triton X-100; dimer to monomers
[5] = target: the molecule itself; assay: crystal structure; Arl1^Q71L-GTP/Mg2+/DCB^Δ51–71, space group C2, one complex per asymmetric unit, 2.3 Å, molecular replacement

B1: GST-Arl1^ΔN14 (human Arl1 residues 15–181), loaded with GMP-PNP or GDP (domain or fragment, UniProt P40616 15-181, looked up)
chain: TREMRILILGLDGAGKTTILYRLQVGEVVTTIPTIGFNVETVTYKNLKFQVWDLGGQTSIRPYWRCYYSNTDAVIYVVDSCDRDRIGISKSELVAMLEEEELRKAILVVFANKQDMEQAMTSSEMANSLGLPALKDRKWQIFKTSATKGTGLDEAMEWLVETLKSRQ
notes: human Arl1, UniProt P40616, residues 15-181 (lacks the N-terminal amphipathic helix, residues 1-14); it was loaded with nucleotide (GMP-PNP or GDP) in vitro; also called Arl1^GTP; GST-Arl1^GMP-PNP; source: E. coli BL21-CodonPlus (DE3)-RIPL, purified (glutathione-Sepharose); not shown: GST, N-terminal, kept
[1]
  binding result: binds
[2]
  binding result: binds
[3]
  binding result: binds

B2: MBP-tagged DCB^BIG1 (wild type) (domain or fragment, human, UniProt Q9Y6D6 1-228, looked up)
chain: MYEGKKTKNMFLTRALEKILADKEVKKAHHSQLRKACEVALEEIKAETEKQSPPHGEAKAGSSTLPPVKSKTNFIEADKYFLPFELACQSKCPRIVSTSLDCLQKLIAYGHLTGNAPDSTTPGKKLIDRIIETICGCFQGPQTDEGVQLQIIKALLTAVTSQHIEIHEGTVLQAVRTCYNIYLASKNLINQTTAKATLTQMLNVIFARMENQALQEAKQMEKERHRQH
notes: Expected monomer 69 kDa, measured average 129 kDa; also called MBP-DCB^BIG1; not shown: MBP, N-terminal, kept
[4]
  stoichiometry N: 2

## B3
[5]
  binding result: binds
